Results: patent US6979460B1, “Vinyl ether lipids with cleavable hydrophlic headgroups” (Purdue Research Foundation, priority 1999, dated 2005)

Key:
[1] = DOPE:CVEP/calcein vesicles with DSPE-PEG3350-folate as targeting ligand
[2] = Acid-triggered calcein release from DOPE:vinyl ether lipid vesicles (calcein fluorescence dequenching assay); type: physicochemical
Procedure: DOPE and the labile PEG lipid were co-dissolved in chloroform that had been prefiltered through a 2.53 cm plug of anhydrous sodium carbonate to remove traces of acid and water from the solvent. This solution was evaporated under a gentle stream of N2 and further dried under vacuum (<200 μ, 4 h). Vesicles were formed by hydrating the lipid film in the presence of 50 mM calcein using five LN2 freeze-thaw-vortex cycles. This suspension was then extruded at 50° C. through two 100 nm track-etch polycarbonate membrane filters. Extraliposomal calcein was removed using a single pass through a 40 cm Sephadex G-50 gel column equilibrated with 150 mM NaCl. The fraction eluting at the void volume was collected and stored at 8° C. until use. Light-sensitive vesicles were prepared in the same manner, except that bacteriochlorophyll a (Bchl) was codissolved in the chloroform lipid solution. Other agents or mixtures of agents, such as therapeutic compounds or diagnostic agents, are substituted for calcein in the above protocol resulting in liposomal encapsulation of the substituted agent.
Vesicle release of the liposomes made in example 4 above, was monitored at 37° C. as a function of time using the calcein fluorescence dequenching assay. Acid-trigged release was initiated by dilution of the vesicles into an acidic buffer solution as described by Gerasimov et al. Light-triggered release was promoted by aerobic illumination (800 nm, 1 W) of a continuously stirred 1 cm quartz cuvette with a SDL 820 diode laser coupled to an optical fiber. The fiber was mounted perpendicular to the cuvette surface to produce a spot of ˜3 mm diameter. Both triggering methods were conducted either in the absence or presence of ten-fold excess of egg phosphatidylcholine (EPC) vesicles as a membrane “sink”.

Substance	cellular calcein fluorescence pattern (cytoplasmic delivery) [1]	t50% release ([2]; 98:2 DOPE:DVEP vesicles, pH 4.5, in the absence of sink EPC)	calcein leakage ([2]; 98:2 DOPE:DVEP vesicles, pH 7.4, sink EPC present or not)	t50% release ([2]; 98:2 DOPE:lipid vesicles (identical loadings), pH 4.5, 37° C.)
4-o-Cholesteryl-(3Z-buten-1-yl)-polyethylene [125] glycolate [CVEP]	punctuated fluorescence, followed by diffuse cytoplasmic fluorescence	–	–	–
rac-1,2-Dioleyl-3-(4′-hydroxy-1′-butenyl)-glyceryl polyethylene [125] glycolate [DVEP]	–	≈ 3 h	lack of leakage	23 min
